Read-outs that look alike come from different tables or passages of the source. Ends that are not written are not given here.
Assays:
Experiment in all cases: SPR
[1] = molecular target: T1, Calmodulin ( (human brain CaM or …, UniProt P0DP23 1-149))
[2] = molecular target: T1, Calmodulin; remark: listed apart in the source
[3] = molecular target: T1, Calmodulin; remark: listed apart in the source
[4] = molecular target: T1, Calmodulin; remark: listed apart in the source

| koff [1] [s⁻¹] | kon [1] [M⁻¹ s⁻¹] | Kd [2] [nM] | Kd [3] [nM] | koff [3] [s⁻¹] | kon [3] [M⁻¹ s⁻¹] | Kd [4] [nM] | Binder |
| --- | --- | --- | --- | --- | --- | --- | --- |
| ~1 | ~1e+09 | 7.1 | – | – | – | – | LKKFNARRKLKGAILTTMLA (not fully specified) [Peptide corresponding to the CaM-binding region of CaMKIIα (CaMKII 290-309)] |
| – | – | – | 480 | 0.16 | 340000 | 19000 | Full-length recombinant human neurogranin with a His-tag at the N-terminus (natural protein) MDCCTENACSKPDDDILDIPLDDPGANAAAAKIQASFRGHMARKKIKSGERGRKGPGPGGPGGAGVARGGAGGGPSGD |

From paper PMC5518211 (Journal of Molecular Recognition, 2017)
